Reference: patent publication US20120128758A1

Experiments:
[1] = molecular target: TND-669S HIV-1 envelope (HIV-1); experiment: cell-based or functional assay
[2] = molecular target: SP62 (gp41 652-671)-GTH1 peptide anchored to liposomes; experiment: SPR on peptide-liposomes, encounter-docking (two-step) model, reverse rate of the docking step; row '2F5 peptide liposome'
[3] = molecular target: SP62-L669S (gp41 652-671)-GTH1 peptide anchored to liposomes; experiment: SPR on peptide-liposomes, encounter-docking (two-step) model, forward rate of the docking step; row 'L669S 2F5 peptide liposome'
[4] = molecular target: SP62 (gp41 652-671)-GTH1 peptide anchored to liposomes; experiment: SPR on peptide-liposomes, encounter-docking (two-step) model, forward rate of the docking step; row '2F5 peptide liposome'
[5] = molecular target: SP62 (gp41 652-671)-GTH1 peptide anchored to liposomes; experiment: SPR on peptide-liposomes, encounter-docking (two-step) model, association of the encounter step; row '2F5 peptide liposome'
[6] = molecular target: SP62 (gp41 652-671)-GTH1 peptide anchored to liposomes; experiment: SPR on peptide-liposomes, encounter-docking (two-step) model, dissociation of the encounter step; row '2F5 peptide liposome'
[7] = molecular target: SP62-L669S (gp41 652-671)-GTH1 peptide anchored to liposomes; experiment: SPR on peptide-liposomes, encounter-docking (two-step) model, reverse rate of the docking step; row 'L669S 2F5 peptide liposome'
[8] = molecular target: TND-669L HIV-1 envelope (HIV-1); experiment: cell-based or functional assay
[9] = molecular target: SP62-L669S (gp41 652-671)-GTH1 peptide anchored to liposomes; experiment: SPR on peptide-liposomes, encounter-docking (two-step) model, dissociation of the encounter step; row 'L669S 2F5 peptide liposome'
[10] = molecular target: SP62-L669S (gp41 652-671)-GTH1 peptide anchored to liposomes; experiment: SPR on peptide-liposomes, encounter-docking (two-step) model, association of the encounter step; row 'L669S 2F5 peptide liposome'
[11] = molecular target: SP62-L669S (gp41 652-671)-GTH1 peptide anchored to liposomes; experiment: SPR, peptide anchored to phospholipid liposomes
[12] = molecular target: SP62 (gp41 652-671)-GTH1 peptide anchored to liposomes; experiment: SPR, peptide anchored to phospholipid liposomes

mAb 447-52D (antibody)
enhancement of neutralization sensitivity against TND-669L [1]: > 161 fold
neutralization of Env-pseudovirus, IC50 [1]: 0.31 µg/mL

mAb 17b (antibody)
increase in neutralization sensitivity against TND-669L [1]: 2 fold

mAb 2F5 (antibody)
kd2 [2]: 0.00037 s⁻¹
ka2 [3]: 0.0054 s⁻¹
ka2 [4]: 0.0181 s⁻¹
ka1 [5]: 931000 M⁻¹ s⁻¹
kd1 [6]: 0.00692 s⁻¹
kd2 [7]: 2e-05 s⁻¹
mean IC50, neutralisation of Env-pseudovirus on JC53-BL cells [8]: 3.92 µg/mL
mean IC50, neutralisation of Env-pseudovirus on JC53-BL cells [1]: 0.014 µg/mL
kd1 [9]: 0.00119 s⁻¹
ka1 [10]: 498000 M⁻¹ s⁻¹
response unit (background subtracted) at 10 seconds after the injection was stopped [11]: 617 RU
response unit at 10 seconds after the injection was stopped [12]: 495 RU

mAb 4E10 (antibody)
mean IC50, neutralisation of Env-pseudovirus on JC53-BL cells [8]: 8.49 µg/mL
fold lower neutralisation IC50 against TND-669S than against TND-669L [1]: 275 fold
mean IC50, neutralisation of Env-pseudovirus on JC53-BL cells [1]: 0.031 µg/mL
